Experimental data from patent US7354734B2, “Fungal proteins and nucleic acids encoding same” (priority 2003, dated 2008).
Entries after “also recorded” stand apart in the source; their conditions may differ.

Assays:
[1] = system: gliadin 33mer (fragment 57-89 of gliadin MM1); test: Digestion of gliadin 33mer (RP-HPLC, ESI-MS); format: biochemical, wheat; conditions: 37° C.; for digestion of gliadin 33mer, mixed with ruDPPIV: enzyme plus ruDPPIV (DPPIV)
[2] = system: gliadin 14mer PQPQLPYPQPQLPY (fragment 82-95 of α/β gliadin AIV); format: biochemical, wheat; conditions: 4 h, 37° C.
[3] = format: biochemical; conditions: for hydrolytic activity toward Ala-AMC in comparison to Leu-MCA used as a standard: substrate Ala-AMC 5 mM; for hydrolytic activity toward Ala-AMC in comparison to Leu-MCA used as a standard / hydrolytic activity toward Arg-AMC in comparison to Leu-MCA used as a standard / hydrolytic activity toward Asn-AMC in comparison to Leu-MCA used as a standard / hydrolytic activity toward Asp-AMC in comparison to Leu-MCA used as a standard / hydrolytic activity toward Cys-AMC in comparison to Leu-MCA used as a standard / hydrolytic activity toward Gln-AMC in comparison to Leu-MCA used as a standard / hydrolytic activity toward Glu-AMC in comparison to Leu-MCA used as a standard / hydrolytic activity toward Gly-AMC in comparison to Leu-MCA used as a standard / hydrolytic activity toward Gly-Pro-AMC in comparison to Leu-MCA used as a standard / hydrolytic activity toward His-AMC in comparison to Leu-MCA used as a standard / hydrolytic activity toward Hyp-AMC in comparison to Leu-MCA used as a standard / hydrolytic activity toward Ile-AMC in comparison to Leu-MCA used as a standard / hydrolytic activity toward Leu-AMC in comparison to Leu-MCA used as a standard / hydrolytic activity toward Lys-AMC in comparison to Leu-MCA used as a standard / hydrolytic activity toward Met-AMC in comparison to Leu-MCA used as a standard / hydrolytic activity toward Phe-AMC in comparison to Leu-MCA used as a standard / hydrolytic activity toward Pro-AMC in comparison to Leu-MCA used as a standard / hydrolytic activity toward Pyr-AMC in comparison to Leu-MCA used as a standard / hydrolytic activity toward Ser-AMC in comparison to Leu-MCA used as a standard / hydrolytic activity toward Thr-AMC in comparison to Leu-MCA used as a standard / hydrolytic activity toward Val-AMC in comparison to Leu-MCA used as a standard: 37° C., 60 min; for hydrolytic activity toward Arg-AMC in comparison to Leu-MCA used as a standard: substrate Arg-AMC 5 mM; for hydrolytic activity toward Asn-AMC in comparison to Leu-MCA used as a standard: substrate Asn-AMC 5 mM; for hydrolytic activity toward Asp-AMC in comparison to Leu-MCA used as a standard: substrate Asp-AMC 5 mM; for hydrolytic activity toward Cys-AMC in comparison to Leu-MCA used as a standard: substrate Cys-AMC 5 mM; for hydrolytic activity toward Gln-AMC in comparison to Leu-MCA used as a standard: substrate Gln-AMC 5 mM; for hydrolytic activity toward Glu-AMC in comparison to Leu-MCA used as a standard: substrate Glu-AMC 5 mM; for hydrolytic activity toward Gly-AMC in comparison to Leu-MCA used as a standard: substrate Gly-AMC 5 mM; for hydrolytic activity toward Gly-Pro-AMC in comparison to Leu-MCA used as a standard: substrate Gly-Pro-AMC 5 mM; for hydrolytic activity toward His-AMC in comparison to Leu-MCA used as a standard: substrate His-AMC 5 mM; for hydrolytic activity toward Hyp-AMC in comparison to Leu-MCA used as a standard: substrate Hyp-AMC 5 mM; for hydrolytic activity toward Ile-AMC in comparison to Leu-MCA used as a standard: substrate Ile-AMC 5 mM; for hydrolysis of Leu-AMC: substrate Leu-AMC; for hydrolytic activity toward Leu-AMC in comparison to Leu-MCA used as a standard: substrate Leu-AMC 5 mM; for hydrolytic activity toward Lys-AMC in comparison to Leu-MCA used as a standard: substrate Lys-AMC 5 mM; for hydrolytic activity toward Met-AMC in comparison to Leu-MCA used as a standard: substrate Met-AMC 5 mM; for hydrolytic activity toward Phe-AMC in comparison to Leu-MCA used as a standard: substrate Phe-AMC 5 mM; for hydrolytic activity toward Pro-AMC in comparison to Leu-MCA used as a standard: substrate Pro-AMC 5 mM; for hydrolytic activity toward Pyr-AMC in comparison to Leu-MCA used as a standard: substrate Pyr-AMC 5 mM; for hydrolytic activity toward Ser-AMC in comparison to Leu-MCA used as a standard: substrate Ser-AMC 5 mM; for hydrolytic activity toward Thr-AMC in comparison to Leu-MCA used as a standard: substrate Thr-AMC 5 mM; for hydrolytic activity toward Val-AMC in comparison to Leu-MCA used as a standard: substrate Val-AMC 5 mM
[4] = format: biochemical; conditions: substrate Lys(Abz)Pro-PropNA 5 mM, 37° C., 60 min

| Molecule | digestion of gliadin 33mer, enzyme alone [1] | hydrolytic activity toward Ala-AMC in comparison to Leu-MCA used as a standard [3] [%] | hydrolytic activity toward Arg-AMC in comparison to Leu-MCA used as a standard [3] [%] | hydrolytic activity toward Asn-AMC in comparison to Leu-MCA used as a standard [3] [%] | hydrolytic activity toward Asp-AMC in comparison to Leu-MCA used as a standard [3] [%] | hydrolytic activity toward Cys-AMC in comparison to Leu-MCA used as a standard [3] [%] | hydrolytic activity toward Gln-AMC in comparison to Leu-MCA used as a standard [3] [%] | hydrolytic activity toward Glu-AMC in comparison to Leu-MCA used as a standard [3] [%] | hydrolytic activity toward Gly-AMC in comparison to Leu-MCA used as a standard [3] [%] | hydrolytic activity toward Gly-Pro-AMC in comparison to Leu-MCA used as a standard [3] [%] | hydrolytic activity toward His-AMC in comparison to Leu-MCA used as a standard [3] [%] | hydrolytic activity toward Hyp-AMC in comparison to Leu-MCA used as a standard [3] [%] | hydrolytic activity toward Ile-AMC in comparison to Leu-MCA used as a standard [3] [%] | hydrolysis of Leu-AMC [3] | hydrolytic activity toward Leu-AMC in comparison to Leu-MCA used as a standard [3] [%] | hydrolytic activity toward Lys-AMC in comparison to Leu-MCA used as a standard [3] [%] | hydrolytic activity toward Met-AMC in comparison to Leu-MCA used as a standard [3] [%] | hydrolytic activity toward Phe-AMC in comparison to Leu-MCA used as a standard [3] [%] | hydrolytic activity toward Pro-AMC in comparison to Leu-MCA used as a standard [3] [%] | hydrolytic activity toward Pyr-AMC in comparison to Leu-MCA used as a standard [3] [%] | other results |
| --- | --- | --- | --- | --- | --- | --- | --- | --- | --- | --- | --- | --- | --- | --- | --- | --- | --- | --- | --- | --- | --- |
| ruDPPIV: T. rubrum dipeptidylpeptidase IV (SEQ ID NO: 35) | not a substrate |  |  |  |  |  |  |  |  |  |  |  |  |  |  |  |  |  |  |  | digestion of gliadin 14mer, enzyme alone [2]: not able to hydrolyse |
| pkLAP: commercially available microsomal LAP from porcine kidney (MEROPS>M1 family), Sigma (protein, UniProt P15145 2-963, looked up) Aminopeptidase N: AKGFYISKALGILGILLGVAAVATIIALSVVYAQEKNKNAEHVPQAPTSPTITTTAAITLDQSKPWNRYRLPTTLLPDSYNVTLRPYLTPNADGLYIFKGKSIVRLLCQEPTDVIIIHSKKLNYTTQGHMVVLRGVGDSQVPEIDRTELVELTEYLVVHLKGSLQPGHMYEMESEFQGELADDLAGFYRSEYMEGNVKKVLATTQMQSTDARKSFPCFDEPAMKATFNITLIHPNNLTALSNMPPKGSSTPLAEDPNWSVTEFETTPVMSTYLLAYIVSEFQSVNETAQNGVLIRIWARPNAIAEGHGMYALNVTGPILNFFANHYNTSYPLPKSDQIALPDFNAGAMENWGLVTYRENALLFDPQSSSISNKERVVTVIAHELAHQWFGNLVTLAWWNDLWLNEGFASYVEYLGADHAEPTWNLKDLIVPGDVYRVMAVDALASSHPLTTPAEEVNTPAQISEMFDSISYSKGASVIRMLSNFLTEDLFKEGLASYLHAFAYQNTTYLDLWEHLQKAVDAQTSIRLPDTVRAIMDRWTLQMGFPVITVDTKTGNISQKHFLLDSESNVTRSSAFDYLWIVPISSIKNGVMQDHYWLRDVSQAQNDLFKTASDDWVLLNVNVTGYFQVNYDEDNWRMIQHQLQTNLSVIPVINRAQVIYDSFNLATAHMVPVTLALDNTLFLNGEKEYMPWQAALSSLSYFSLMFDRSEVYGPMKKYLRKQVEPLFQHFETLTKNWTERPENLMDQYSEINAISTACSNGLPQCENLAKTLFDQWMSDPENNPIHPNLRSTIYCNAIAQGGQDQWDFAWGQLQQAQLVNEADKLRSALACSNEVWLLNRYLGYTLNPDLIRKQDATSTINSIASNVIGQPLAWDFVQSNWKKLFQDYGGGSFSFSNLIQGVTRRFSSEFELQQLEQFKKNNMDVGFGSGTRALEQALEKTKANIKWVKENKEVVLNWFIEHS | partial deletion of N-terminal Leu and C-terminal Phe | 584.7 | 174.8 | 33.9 | 0.9 | 35.5 | 50.7 | 4.7 | 74.8 | 16.7 | 17.6 | 1.7 | 6.3 | efficiently hydrolyzed; also recorded: common preference | 100.0 | 70.1 | 46.1 | 184.4 | 7.9 | 0.0 | hydrolytic activity toward Ala-AMC ([3]; compared to Leu-AMC): extremely high efficiency; hydrolytic activity toward Arg-AMC ([3]; compared to Leu-AMC): extremely high efficiency; hydrolytic activity toward Ser-AMC in comparison to Leu-MCA used as a standard [3]: 24.6%; hydrolytic activity toward Thr-AMC in comparison to Leu-MCA used as a standard [3]: 4.4%; hydrolytic activity toward Val-AMC in comparison to Leu-MCA used as a standard [3]: 4.0%; digestion of gliadin 33mer, mixed with ruDPPIV [1]: does not modify the profile; hydrolytic activity toward Lys(Abz)Pro-PropNA in comparison to Leu-MCA used as a standard [4]: 0.0% |
| fuLAP2: A. fumigatus leucine aminopeptidase, 498 amino acid residues (SEQ ID NO: 9) (protein, listed as Aspergillus fumigatus) MKLLYLTSFASLAVANGPGWDWKPRVHPKVLPQMIHLWDLLQGAQQLEDFAYAYPERNRVFGGRAHEDTVNYLYRELKKTGYYDVYKQPQVHQWTRADQALTVDGQSYDATTMTYSPSVNATAPLAVVNNLGCVEADYPADLTGKIALISRGECTFATKSVLSAKAGAAAALVYNNIEGSMAGTLGGATSELGAYAPIAGISLADGQALIQMIQAGTVTANLWIDSQVENRTTYNVIAQTKGGDPNNVVALGGHTDSVEAGPGINDDGSGIISNLVVAKALTRFSVKNAVRFCFWTAEEFGLLGSNYYVNSLNATEQAKIRLYLNFDMIASPNYALMIYDGDGSAFNLTGPAGSAQIERLFEDYYTSIRKPFVPTEFNGRSDYQAFILNGIPAGGLFTGAEAIKTEEQAQLFGGQAGVALDANYHAKGDNMTNLNREAFLINSRATAFAVATYANSLDSIPPRNMTTVVKRSQLEQAMKRTPHTHTGGTGCYKDRVEQ |  | 11.7 | 2.3 | 73.5 | 0.3 | 2.1 | 37.0 | 1.1 | 2.2 | 74.1 | 1.9 | 13.3 | 1.8 | efficiently hydrolyzed; also recorded: common preference | 100.0 | 2.3 | 89.5 | 8.9 | 7.4 | 0.0 | hydrolytic activity toward Ser-AMC in comparison to Leu-MCA used as a standard [3]: 10.3%; hydrolytic activity toward Thr-AMC in comparison to Leu-MCA used as a standard [3]: 0.1%; hydrolytic activity toward Val-AMC in comparison to Leu-MCA used as a standard [3]: 0.8%; digestion of gliadin 33mer, mixed with ruDPPIV [1]: same HPLC pattern; hydrolytic activity toward Lys(Abz)Pro-PropNA in comparison to Leu-MCA used as a standard [4]: 0.0% |
